T1: β-catenin (UniProt P35222 1-781, limits assumed)
T1 construct: also called beta-catenin
T1 sequence (looked up): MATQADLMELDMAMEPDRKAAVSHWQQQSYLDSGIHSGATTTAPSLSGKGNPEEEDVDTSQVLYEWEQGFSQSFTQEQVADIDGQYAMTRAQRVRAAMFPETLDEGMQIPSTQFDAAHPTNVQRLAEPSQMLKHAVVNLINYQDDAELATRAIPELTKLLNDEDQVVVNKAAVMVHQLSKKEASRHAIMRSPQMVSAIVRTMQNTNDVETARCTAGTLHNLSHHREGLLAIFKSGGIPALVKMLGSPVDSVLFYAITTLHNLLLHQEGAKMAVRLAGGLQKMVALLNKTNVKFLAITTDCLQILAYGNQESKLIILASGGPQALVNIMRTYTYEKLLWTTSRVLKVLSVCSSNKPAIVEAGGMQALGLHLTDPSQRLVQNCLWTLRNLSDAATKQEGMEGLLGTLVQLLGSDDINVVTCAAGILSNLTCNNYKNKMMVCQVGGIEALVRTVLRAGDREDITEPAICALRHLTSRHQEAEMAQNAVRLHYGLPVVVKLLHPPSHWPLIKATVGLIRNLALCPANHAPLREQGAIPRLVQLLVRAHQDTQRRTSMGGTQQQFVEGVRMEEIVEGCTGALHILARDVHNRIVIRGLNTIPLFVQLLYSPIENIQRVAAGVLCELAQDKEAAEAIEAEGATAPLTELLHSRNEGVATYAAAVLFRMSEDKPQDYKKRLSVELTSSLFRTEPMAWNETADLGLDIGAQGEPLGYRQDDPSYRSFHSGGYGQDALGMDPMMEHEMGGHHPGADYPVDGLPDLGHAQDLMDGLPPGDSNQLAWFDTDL

B1: SEQ ID NO: 178 (peptide)
peptide: Ac-HRQRSLQTLR[S5]IQR[S5][Azetidine3carboxylic][2Nal]-NH2
modifications: staple 11-15
SMILES: CC[C@H](C)[C@@H]1NC(=O)[C@@](C)(NC(=O)[C@H](CCCNC(=N)N)NC(=O)[C@H](CC(C)C)NC(=O)[C@@H](NC(=O)[C@H](CCC(N)=O)NC(=O)[C@H](CC(C)C)NC(=O)[C@H](CO)NC(=O)[C@H](CCCNC(=N)N)NC(=O)[C@H](CCC(N)=O)NC(=O)[C@H](CCCNC(=N)N)NC(=O)[C@H](Cc2c[nH]cn2)NC(C)=O)[C@@H](C)O)CCCC=CCCC[C@@](C)(C(=O)N2CC(C(=O)N[C@@H](Cc3ccc4ccccc4c3)C(N)=O)C2)NC(=O)[C@H](CCCNC(=N)N)NC(=O)[C@H](CCC(N)=O)NC1=O
B2: SEQ ID NO: 173 (peptide)
peptide: Ac-LQTLR[S5]IQR[S5][dCha][2Nal]-NH2
modifications: staple 6-10; not fully specified (residue 2); printed as L(N-methylQ)TLRXIQRXD(Cha)(2-Nal); also: N-methylQ at 2: D or L (both stated)
B3: SEQ ID NO: 183 (peptide)
peptide: Ac-H[hArg]QRSLQTLR[S5]IQR[S5][Cha][2Nal]-NH2
modifications: staple 11-15
SMILES: CC[C@H](C)[C@@H]1NC(=O)[C@@](C)(NC(=O)[C@H](CCCNC(=N)N)NC(=O)[C@H](CC(C)C)NC(=O)[C@@H](NC(=O)[C@H](CCC(N)=O)NC(=O)[C@H](CC(C)C)NC(=O)[C@H](CO)NC(=O)[C@H](CCCNC(=N)N)NC(=O)[C@H](CCC(N)=O)NC(=O)[C@H](CCCCNC(=N)N)NC(=O)[C@H](Cc2c[nH]cn2)NC(C)=O)[C@@H](C)O)CCCC=CCCC[C@@](C)(C(=O)N[C@@H](CC2CCCCC2)C(=O)N[C@@H](Cc2ccc3ccccc3c2)C(N)=O)NC(=O)[C@H](CCCNC(=N)N)NC(=O)[C@H](CCC(N)=O)NC1=O
B4: SEQ ID NO: 174 (peptide)
peptide: Ac-LQTLR[S5]IQR[S5][NMeCha][2Nal]-NH2
modifications: staple 6-10; not fully specified (residue 2); printed as L(N-methylQ)TLRXIQRX(N-methylCha)(2-Nal); also: N-methylQ at 2: D or L (both stated)
B5: SEQ ID NO: 184 (peptide)
peptide: Ac-HRQ[NMeR]SLQTLR[S5]IQR[S5][Cha][2Nal]-NH2
modifications: staple 11-15
SMILES: CC[C@H](C)[C@@H]1NC(=O)[C@@](C)(NC(=O)[C@H](CCCNC(=N)N)NC(=O)[C@H](CC(C)C)NC(=O)[C@@H](NC(=O)[C@H](CCC(N)=O)NC(=O)[C@H](CC(C)C)NC(=O)[C@H](CO)NC(=O)[C@H](CCCNC(=N)N)N(C)C(=O)[C@H](CCC(N)=O)NC(=O)[C@H](CCCNC(=N)N)NC(=O)[C@H](Cc2c[nH]cn2)NC(C)=O)[C@@H](C)O)CCCC=CCCC[C@@](C)(C(=O)N[C@@H](CC2CCCCC2)C(=O)N[C@@H](Cc2ccc3ccccc3c2)C(N)=O)NC(=O)[C@H](CCCNC(=N)N)NC(=O)[C@H](CCC(N)=O)NC1=O
B6: SEQ ID NO: 129 (peptide)
peptide: Ac-L[NMeQ]TLR[S5][Cba]QR[S5][Cba][2Nal]-NH2
modifications: staple 6-10; not fully specified; printed as L(N-methylQ)TLRX(CBA)QRX(CBA)(2-Nal)
B7: SEQ ID NO: 123 (peptide)
peptide: Ac-L[NMeQ]T[Cha]R[S5]IQR[S5][Cba][2Nal]-NH2
modifications: staple 6-10; not fully specified; printed as L(N-methylQ)T(Cha)RXIQRX(CBA)(2-Nal)
B8: SEQ ID NO: 195 (peptide)
peptide: Ac-L[NMeQ]TLR[S5]IQR[S5][Phe(4-Cl)][2Nal]-NH2
modifications: staple 6-10; not fully specified; printed as L(N-methylQ)TLRXIQRX(4-Cl-Ph)(2-Nal), X/X stapled, (S) α-methyl, N-terminal Ac, C-terminal NH2
B9: SEQ ID NO: 172 (peptide)
peptide: Ac-LQTLR[S5]IQR[S5][αMeL][2Nal]-NH2
modifications: staple 6-10; not fully specified (residue 2); printed as L(N-methylQ)TLRXIQRX(α-methylL)(2-Nal); also: N-methylQ at 2: D or L (both stated)
B10: SEQ ID NO: 114 (peptide)
peptide: [Cba][dNMeQ]TLR[S5]IQR[S5][Cba][2Nal]
modifications: staple 6-10; not fully specified (N-terminus, C-terminus); printed as (CBA)(N-methylQ)TLRXIQRX(CBA)(2-Nal), X/X stapled, (S) α-methyl, N-terminal Ac, C-terminal NH2

*1 amine or outer side, *2 acyl side, *3 side chain or, on linkers, in order; H or OH if unused. Bridges are numbered along the chain shown (N, C = ends). Where no end group is shown, it is not given here. [ ]: non-standard residue; d: D form. Azetidine3carboxylic = O=C(C1CN([*:1])C1)[*:2]; dimethyl = N-terminal dimethyl modification; Phe(4-Cl) = N[C@@H](Cc1ccc(Cl)cc1)C(=O)O; 2Nal = N[C@@H](Cc1ccc2ccccc2c1)C(=O)O; NMeCha = CN[C@@H](CC1CCCCC1)C(=O)O; NMeR = CN[C@@H](CCCNC(=N)N)C(=O)O; hArg = N=C(N)NCCCC[C@H](N)C(=O)O; NMeQ = CN[C@@H](CCC(N)=O)C(=O)O; dNMeQ = CN[C@H](CCC(N)=O)C(=O)O; Cha = N[C@@H](CC1CCCCC1)C(=O)O; dCha = N[C@H](CC1CCCCC1)C(=O)O; AllylGly = C=CC[C@H](N)C(=O)O; αMeL = CC(C)C[C@](C)(N)C(=O)O; Cba = N[C@@H](CC1CCC1)C(=O)O; S5 = C=CCCC[C@](C)(N)C(=O)O; Nle = CCCC[C@H](N)C(=O)O; Ac4c = NC1(C(=O)O)CCC1

As a reminder, the IC50 is the concentration that gives 50% inhibition.

The target of the assay is T1, β-catenin. The experiment in a line: ALPHA Screen (BCL9/β-catenin).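 Note: bead proximity readout with the polypeptide linked to donor beads and β-catenin fixed on acceptor beads, their binding bringing the beads close enough to emit signal.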
Text: In this assay, a polypeptide is conjugated to a donor bead and its target protein (i.e., β-catenin) is attached to an acceptor bead. When the two beads are in proximity due to the binding of the polypeptide to the target protein, a signal is generated and the binding affinity of the polypeptide can be quantitatively calculated. The assay may be conducted in the presence or absence of an unconjugated control polypeptide.
Turning to B1, it took 0.563 µM to reach half-maximal inhibition (IC50). The value for Ac-HRQRSL[NMeQ]TLR[S5]IQR[S5][Cba][2Nal]-NH2 (staple 11-15) [SEQ ID NO: 153] was 0.261 µM; that for B2 was 14.7 µM.

Take Ac-HR[NMeQ]RSL[NMeQ]TLR[S5]IQR[S5][Cba][2Nal]-NH2 (staple 11-15) [SEQ ID NO: 155]: it took 0.281 µM to reach half-maximal inhibition (IC50).

On to {4‑biphenyl acetic acid}-L[NMeQ]TLR[S5]IQR[S5][Cba][2Nal]-NH2 (staple 6-10; not fully specified) [SEQ ID NO: 143], for which the IC50 turned out to be 6.66 µM. The same measure for LQTLR[Nle]IQR[Nle]L[2Nal]PD [SEQ ID NO: 54]: 14.7 µM. For the molecule dimethyl-L[NMeQ]TLR[S5]IQR[S5][Cba][2Nal]-NH2 (staple 6-10; not fully specified) [SEQ ID NO: 144], inhibition was half-maximal at 2.13 µM (IC50).

Take Ac-RERSLQTLR[S5]IQR[S5]L[2Nal]-NH2 (staple 10-14; not fully specified; printed as RERSLQTLRXIQRXL(2-Nal)) [SEQ ID NO: 5]: the IC50 is 1.45 µM. The value for Ac-QERSLQTLR[S5]IQR[S5]L[2Nal]-NH2 (staple 10-14; not fully specified; printed as QERSLQTLRXIQRXL(2-Nal)) [SEQ ID NO: 10] was 4.2 µM; that for Ac-RERSLQTLR[S5]IQR[S5][Cba][2Nal]-NH2 (staple 10-14; not fully specified; printed as RERSLQTLRXIQRX(CBA)(2-Nal)) [SEQ ID NO: 13] was 0.844 µM. The molecule Ac-HRQRSLQTLR[S5]IQR[S5][Ac4c][2Nal]-NH2 (staple 11-15) [SEQ ID NO: 176] had an IC50 of 0.236 µM. Compared with the last molecule, the IC50 is about 3.6-fold lower.

B3 had an IC50 of 0.119 µM.

B4 showed an IC50 of 6.88 µM. Against the preceding molecule, the IC50 is about 58-fold higher. The same measure for B5: 0.195 µM. For Ac-LQTLR[S5]IQK[S5]L[2Nal]-NH2 (staple 6-10) [SEQ ID NO: 101], half-maximal inhibition (IC50) required 10.6 µM.

In turn, B6 returned an IC50 of 2.06 µM. The value for B7 was 3.62 µM; that for Ac-LQTLR[S5]IQR[S5][AllylGly][2Nal]-NH2 (staple 6-10) [SEQ ID NO: 175] was 9.71 µM. On to Ac-[dL]QTIR[S5]IQR[S5]L[2Nal]-NH2 (staple 6-10) [SEQ ID NO: 102], for which the IC50 amounted to 6.84 µM. This IC50 and that of the molecule before are within 1.5-fold of each other.

With Ac-LQT[dL]R[S5]IQR[S5]L[2Nal]-NH2 (staple 6-10) [SEQ ID NO: 103], the midpoint of inhibition, the IC50, lay at 2.86 µM. Molecule B8 gave an IC50 of 13 µM.

Ac-LQT[Cba]R[S5]IQR[S5][Cba][2Nal]-NH2 (staple 6-10) [SEQ ID NO: 115] displayed an IC50 of 4.53 µM.

In the case of Ac-[Cba]QTLR[S5]IQR[S5][Cba][2Nal]-NH2 (staple 6-10) [SEQ ID NO: 113], it took 6.99 µM to reach half-maximal inhibition (IC50). The value for Ac-LETLR[S5]IQR[S5][Cba][2Nal]-NH2 (staple 6-10) [SEQ ID NO: 109] was 0.913 µM. The value for B9 was 8 µM. On to B10, for which the IC50 was determined as 4.9 µM. The same measure for Ac-LQTLR[S5]IQH[S5][Cba][2Nal]-NH2 (staple 6-10) [SEQ ID NO: 112]: 5.65 µM. Ac-LQTLR[S5]IQR[S5][dL][2Nal]-NH2 (staple 6-10) [SEQ ID NO: 105] displayed an IC50 of 10.7 µM. This IC50 lies about 1.9-fold higher than the previous one.
